According to patent US20150283214A1:

Target: α5β1 integrin on mouse embryonic fibronectin-null fibroblasts (mouse) (UniProt P11688)
Test: cell-based or functional assay

Sequence of α5β1 integrin on mouse embryonic fibronectin-null fibroblasts (mouse) (P11688 45-1053, chain 1 of 2): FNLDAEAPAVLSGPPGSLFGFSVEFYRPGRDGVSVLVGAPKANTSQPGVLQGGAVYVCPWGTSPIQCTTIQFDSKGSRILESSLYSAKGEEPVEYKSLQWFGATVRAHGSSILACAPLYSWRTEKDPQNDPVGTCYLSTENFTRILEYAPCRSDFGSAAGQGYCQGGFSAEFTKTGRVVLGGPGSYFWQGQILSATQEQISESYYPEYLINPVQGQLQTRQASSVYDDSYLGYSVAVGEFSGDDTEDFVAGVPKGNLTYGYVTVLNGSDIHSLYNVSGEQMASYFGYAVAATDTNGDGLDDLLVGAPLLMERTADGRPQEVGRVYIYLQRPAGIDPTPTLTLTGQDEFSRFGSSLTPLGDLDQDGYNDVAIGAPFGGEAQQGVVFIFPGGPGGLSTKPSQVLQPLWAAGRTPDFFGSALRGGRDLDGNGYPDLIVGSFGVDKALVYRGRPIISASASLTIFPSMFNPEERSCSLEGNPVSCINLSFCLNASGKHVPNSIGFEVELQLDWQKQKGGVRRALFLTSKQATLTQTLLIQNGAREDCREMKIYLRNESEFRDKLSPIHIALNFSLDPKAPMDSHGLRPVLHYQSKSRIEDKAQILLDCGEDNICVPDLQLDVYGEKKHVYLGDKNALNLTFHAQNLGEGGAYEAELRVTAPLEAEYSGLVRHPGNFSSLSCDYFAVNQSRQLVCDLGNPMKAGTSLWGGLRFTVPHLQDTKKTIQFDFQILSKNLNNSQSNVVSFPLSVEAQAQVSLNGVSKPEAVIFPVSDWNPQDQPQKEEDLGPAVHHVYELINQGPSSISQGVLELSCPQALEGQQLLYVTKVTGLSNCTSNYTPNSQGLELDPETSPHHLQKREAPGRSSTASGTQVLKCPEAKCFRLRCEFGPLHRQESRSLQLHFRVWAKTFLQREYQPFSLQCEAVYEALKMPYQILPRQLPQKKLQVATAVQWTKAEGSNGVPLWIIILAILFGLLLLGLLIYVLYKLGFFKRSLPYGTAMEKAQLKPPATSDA
Sequence of α5β1 integrin on mouse embryonic fibronectin-null fibroblasts (mouse) (P09055 21-798, chain 2 of 2, further chain): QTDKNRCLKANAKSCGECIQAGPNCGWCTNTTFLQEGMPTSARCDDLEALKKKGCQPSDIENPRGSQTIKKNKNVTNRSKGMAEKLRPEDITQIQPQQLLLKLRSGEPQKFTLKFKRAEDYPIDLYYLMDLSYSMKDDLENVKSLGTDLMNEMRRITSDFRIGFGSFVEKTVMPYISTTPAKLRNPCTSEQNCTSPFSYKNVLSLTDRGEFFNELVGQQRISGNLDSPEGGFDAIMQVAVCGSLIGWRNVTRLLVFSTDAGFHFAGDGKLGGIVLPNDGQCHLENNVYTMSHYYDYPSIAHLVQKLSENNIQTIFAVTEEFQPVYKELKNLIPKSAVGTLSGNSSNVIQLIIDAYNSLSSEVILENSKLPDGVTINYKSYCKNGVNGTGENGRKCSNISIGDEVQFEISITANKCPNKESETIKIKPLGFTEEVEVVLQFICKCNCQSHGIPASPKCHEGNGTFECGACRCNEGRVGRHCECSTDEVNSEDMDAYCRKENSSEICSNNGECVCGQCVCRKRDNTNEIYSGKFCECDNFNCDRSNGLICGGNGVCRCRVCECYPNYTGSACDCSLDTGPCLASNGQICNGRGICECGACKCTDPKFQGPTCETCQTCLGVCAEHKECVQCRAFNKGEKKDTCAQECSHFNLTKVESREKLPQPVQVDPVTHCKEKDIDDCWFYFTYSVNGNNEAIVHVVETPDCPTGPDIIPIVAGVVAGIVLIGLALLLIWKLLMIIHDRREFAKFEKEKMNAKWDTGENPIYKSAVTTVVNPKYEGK
Sequence of Human plasma fibronectin, P02751 32-2477 (other; Alexa^488 label where used as FN^488) (P02751 other isoform, or with tags, fused parts or gaps): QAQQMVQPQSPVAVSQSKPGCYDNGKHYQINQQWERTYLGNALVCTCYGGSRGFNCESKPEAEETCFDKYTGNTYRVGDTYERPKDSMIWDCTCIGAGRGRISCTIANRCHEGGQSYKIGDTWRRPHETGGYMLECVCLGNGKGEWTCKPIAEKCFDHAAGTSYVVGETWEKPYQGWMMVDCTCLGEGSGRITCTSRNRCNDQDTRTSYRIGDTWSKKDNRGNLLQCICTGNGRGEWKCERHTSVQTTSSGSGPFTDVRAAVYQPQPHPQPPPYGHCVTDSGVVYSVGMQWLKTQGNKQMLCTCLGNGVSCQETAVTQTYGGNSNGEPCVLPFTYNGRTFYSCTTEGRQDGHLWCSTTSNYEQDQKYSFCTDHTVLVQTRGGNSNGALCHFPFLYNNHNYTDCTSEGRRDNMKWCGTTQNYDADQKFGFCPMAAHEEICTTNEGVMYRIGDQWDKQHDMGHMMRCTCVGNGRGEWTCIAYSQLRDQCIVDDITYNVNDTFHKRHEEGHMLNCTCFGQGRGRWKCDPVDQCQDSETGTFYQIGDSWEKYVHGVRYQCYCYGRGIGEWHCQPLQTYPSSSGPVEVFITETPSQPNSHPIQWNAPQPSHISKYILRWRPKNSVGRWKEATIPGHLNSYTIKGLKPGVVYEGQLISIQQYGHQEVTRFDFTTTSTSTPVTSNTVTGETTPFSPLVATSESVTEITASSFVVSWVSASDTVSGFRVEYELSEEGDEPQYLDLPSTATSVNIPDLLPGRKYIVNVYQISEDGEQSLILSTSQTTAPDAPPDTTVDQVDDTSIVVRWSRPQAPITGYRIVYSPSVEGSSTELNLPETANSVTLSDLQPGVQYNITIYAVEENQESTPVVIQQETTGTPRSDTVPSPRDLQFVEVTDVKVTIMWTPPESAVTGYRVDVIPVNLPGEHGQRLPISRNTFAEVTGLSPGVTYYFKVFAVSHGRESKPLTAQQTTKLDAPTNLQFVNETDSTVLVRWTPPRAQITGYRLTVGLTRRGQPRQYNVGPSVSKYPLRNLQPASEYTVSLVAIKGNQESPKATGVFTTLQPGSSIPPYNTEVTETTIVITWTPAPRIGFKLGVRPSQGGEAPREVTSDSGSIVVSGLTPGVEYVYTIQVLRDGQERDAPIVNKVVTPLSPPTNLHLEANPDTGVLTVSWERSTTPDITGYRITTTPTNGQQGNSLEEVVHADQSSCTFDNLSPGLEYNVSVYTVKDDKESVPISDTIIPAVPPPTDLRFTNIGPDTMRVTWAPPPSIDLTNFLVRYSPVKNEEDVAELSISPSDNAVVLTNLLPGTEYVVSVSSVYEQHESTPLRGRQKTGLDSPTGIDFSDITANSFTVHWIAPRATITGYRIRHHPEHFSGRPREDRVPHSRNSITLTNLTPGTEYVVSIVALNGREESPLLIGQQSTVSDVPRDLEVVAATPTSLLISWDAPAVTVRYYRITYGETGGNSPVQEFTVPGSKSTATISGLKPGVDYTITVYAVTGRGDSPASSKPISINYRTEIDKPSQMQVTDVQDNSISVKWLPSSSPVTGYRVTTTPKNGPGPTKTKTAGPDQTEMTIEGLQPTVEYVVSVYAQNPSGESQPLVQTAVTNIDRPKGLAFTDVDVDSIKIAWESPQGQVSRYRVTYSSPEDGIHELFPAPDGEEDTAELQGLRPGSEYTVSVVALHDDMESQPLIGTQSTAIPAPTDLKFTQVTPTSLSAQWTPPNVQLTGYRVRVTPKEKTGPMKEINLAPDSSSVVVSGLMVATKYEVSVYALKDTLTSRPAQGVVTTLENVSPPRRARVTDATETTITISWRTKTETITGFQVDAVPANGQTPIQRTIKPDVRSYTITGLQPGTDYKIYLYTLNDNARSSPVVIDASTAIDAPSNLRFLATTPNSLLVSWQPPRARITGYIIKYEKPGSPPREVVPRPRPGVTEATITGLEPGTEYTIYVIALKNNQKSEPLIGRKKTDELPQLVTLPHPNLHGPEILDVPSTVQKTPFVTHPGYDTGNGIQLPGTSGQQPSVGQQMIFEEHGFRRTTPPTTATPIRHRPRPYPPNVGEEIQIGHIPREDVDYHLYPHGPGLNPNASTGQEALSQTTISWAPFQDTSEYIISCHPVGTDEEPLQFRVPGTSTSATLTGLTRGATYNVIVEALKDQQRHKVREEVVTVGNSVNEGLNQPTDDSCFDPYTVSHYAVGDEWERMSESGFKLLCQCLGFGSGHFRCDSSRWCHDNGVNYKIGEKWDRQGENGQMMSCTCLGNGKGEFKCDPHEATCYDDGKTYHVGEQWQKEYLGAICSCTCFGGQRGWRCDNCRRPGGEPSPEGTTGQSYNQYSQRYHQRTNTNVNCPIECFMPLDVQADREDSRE

- reduction of FN-null MEF adhesion to full-length fibronectin by α5 integrin-blocking antibody: 53%
- reduction of FN-null MEF adhesion to full-length fibronectin by β1 integrin-blocking antibody: 71.3%
Substance: Human plasma fibronectin, P02751 32-2477 (other; Alexa^488 label where used as FN^488)
